Values of other authors as cited in paper PMC3238542.
Where two headings read alike, the source gives them in different places.

Key:
pyruvate carboxylase [1] = target: pyruvate carboxylase (UniProt P11498); assay: enzyme inhibition
pyruvate carboxylase [2] = target: pyruvate carboxylase (UniProt P11498)

Sequence of UniProt P11498 (P11498 21-1178): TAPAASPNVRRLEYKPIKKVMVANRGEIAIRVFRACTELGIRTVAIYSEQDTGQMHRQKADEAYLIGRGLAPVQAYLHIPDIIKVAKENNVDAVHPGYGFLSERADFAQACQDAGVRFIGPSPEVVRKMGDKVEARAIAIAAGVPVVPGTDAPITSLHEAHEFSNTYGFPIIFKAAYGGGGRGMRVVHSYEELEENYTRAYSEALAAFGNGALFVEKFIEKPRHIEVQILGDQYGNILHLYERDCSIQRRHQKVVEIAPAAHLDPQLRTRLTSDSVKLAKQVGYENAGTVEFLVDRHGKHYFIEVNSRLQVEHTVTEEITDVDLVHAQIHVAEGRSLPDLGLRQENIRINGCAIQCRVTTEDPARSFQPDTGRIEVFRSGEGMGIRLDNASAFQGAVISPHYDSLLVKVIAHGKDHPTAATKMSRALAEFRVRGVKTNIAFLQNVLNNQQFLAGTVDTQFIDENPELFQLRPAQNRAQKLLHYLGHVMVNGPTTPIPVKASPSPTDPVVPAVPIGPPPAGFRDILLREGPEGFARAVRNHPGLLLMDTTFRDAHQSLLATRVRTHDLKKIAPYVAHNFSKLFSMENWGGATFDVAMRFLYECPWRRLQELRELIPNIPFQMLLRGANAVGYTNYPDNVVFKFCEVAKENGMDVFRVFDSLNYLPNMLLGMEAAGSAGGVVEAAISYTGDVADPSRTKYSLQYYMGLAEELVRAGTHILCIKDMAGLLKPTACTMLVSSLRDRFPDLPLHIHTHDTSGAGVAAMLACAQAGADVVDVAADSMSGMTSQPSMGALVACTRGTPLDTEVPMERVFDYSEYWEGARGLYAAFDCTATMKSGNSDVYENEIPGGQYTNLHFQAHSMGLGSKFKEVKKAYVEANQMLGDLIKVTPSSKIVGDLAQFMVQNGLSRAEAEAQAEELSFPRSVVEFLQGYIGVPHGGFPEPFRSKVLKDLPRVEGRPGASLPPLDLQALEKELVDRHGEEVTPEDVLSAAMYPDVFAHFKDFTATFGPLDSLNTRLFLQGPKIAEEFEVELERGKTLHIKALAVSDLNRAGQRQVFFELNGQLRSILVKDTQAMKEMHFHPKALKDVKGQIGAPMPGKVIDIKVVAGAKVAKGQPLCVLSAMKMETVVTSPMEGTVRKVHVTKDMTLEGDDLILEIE

Which Ki (pyruvate carboxylase [1]) does the source give for prohibitin (Phb1) (from UniProt P35232) here?
Its Ki is 5 nM.

What about the Ki (pyruvate carboxylase [2]) of the same substance?
Its Ki is 4 nM.
